According to a protein production outcome set (Wang et al. 2014):

Test: label from the status in PepcDB records

MGKIHELSSVLADQIAAGEVVERPASVVKELVENAVDAHATQVDILVQESGVQSIRVIDDGDGIDDAEVLTAFKRHATSKITSREDLFRVHSLGFRGEALPSIASVADVVMNTSTGATGTSIHYRGGKLLQQSPAPLRQGTDITVTDLFFNTPARLKYLKSPQTELANILDVVNRIALSYPAVAFRLVHNAKELLKTAGRGDLQQVIAGIYGVQNARKMVAIQGSTTDFKLSGFVALPELTRASRQYITVLINGRAIKNQQLTKAVIKGYGSKLMVGRYPIAVIALTMDPLLVDVNVHPTKQEVRLSKEPELAKLVSTTITDRLVDVNLIPSALTNLGSHRREHLNTDQLAMDLNAVSSQYQVADKTTPASTEQFAASLAAATMQPSSATTMVSTTSAQPSAVNRAAVSAVVPSESAASSANQPIMISHRDELTATPVQAFDQRYQSESGALPFGETAEPLETSTAASAPTSEAPDTERFPQLRYLGQMHGTYLLAEADDGMYILDQHAAQERINYEYYRQAIGEVSADQQNLLVPIILDYPTSDVLKIKEKLPLLAELGIHLESFGGNSFIVHAHPTWFKAGQEEDTIREMIDWLLQDDKLTVAQFREKSAIMMSCKRAIKANHHLDDQQARALLAKLPTCENPFNCPHGRPVTVHFTNSDMERMFKRIQDSHEARD
protein production: failed

MGKIQELSEQLANQIAAGEVVERPASVVKELVENALDAGSTQIDIFIEEAGLKTIQIIDNGEGIAKEDVLNAFKRHATSKIHTRDDLFRIRSLGFRGEALPSIASVSEMIVETATAEEEEGSYVILKGGKVEENRPAALRKGTKMTVSNLFYNTPARLKYVKTIQTELANIGDIVNRLALSHPKVAFRLVHDGHKMMSTTGNGDLKQTIAGIYGISTAKKMLKIEGKDLDFTLTGYVSLPEVTRASRNYLSTIINGRYIKNFALNKAIVAGYGSKLMVGRFPIAVLEIEMDPLLVDVNVHPTKQEVRLSKEKDLMALIEQAIQEVLSQEQLIPNAADNLRFKKKLPPEPKAEQMEIPLSTEQPAVKQRPGSLSYNPATGRFYAEHATDETPASSAPEAVNQTERAVDPMDDPFAPPVPESTSVAEETSAYETSSAAADSANHWETASNEQQVIAEETKITEVPDSEPSLRSSEAADEVFQEEMKLHPEFDANSAASQRELKQALNKLEEERPTERFPELEYFGQMHGTYLFAQSKDGLFIIDQHAAQERIKYEYFREKIGEVSDDLQELLVPIVIDYPNSDALKIKEQKETLAEVGIHLEDFGQNSFIVRAHPTWYPAGEEESIVREMIDMLLTTGSVSVKKFREATAIMMSCKRSIKANHYLNEQQARVLLKDLALCENPFNCPHGRPVLIHFTNSDMERMFKRIQDPH
protein production: failed

MGKKYSMRRRIWQAVIEIIIGTCLLILLLLGLTFFLRQIGQISGSETIRLSLDSDNLTISDIERDMKHYPYDYIIFDNDTSKILGGHYVKSDVPSFVASKQSSHNITEGEITYTYSSNKHFSVVLRQNSMPEFTNHTLRSISYNQFTYLFFFLGEIILIIFSVYHLIREFSKNFQAVQKIALKMGEITTFPEQEESKIIEFDQVLNNLYSKSKELAFLIEAERHEKHDLSFQVAALSHDVKTPLTVLKGNIELLEMTEVNEQQADFIESMKNSLTVFDKYFNTMISYTKLLNDENDYKATISLEDFLIDLSVELEELSTTYQVDYQLVKKTDLTTFYGNTLALSRALINIFVNACQYAKEGEKIVSLSIYDDEKYLYFEIWNNGHPFSEQAKKNAGKLFFTEDTGRSGKHYGIGLSFAQGVALKHQGNLILSNPQKGGAEVILKIKK
protein production: failed

MGKTPEEVDEVNKAAFSTSEASATIAAMNQLHKPVDTVVAHISPEAPAAKVMAEGDVITQVAGAKATGPSQVRDAVRAKKPGETISIGFLRDGKQLTREVTLGTHPEDDKVAFLGVSMTARPLEHHHHHH
protein production: not failed

MGKVQPVYWRQLRDIEMENNFLLDVRTPDEFSLNTLPGAVNIPLDELRDRLDELPKDKMIYTFCAVGLRGYLAYRILVQHGFEKVRNLSGGLKTYHAAAAPIILREESENEVPLEHHHHHH
protein production: not failed

MGLFDEVVGAFLKGDAGKYQAILSWVEEQGGIQVLLEKLQSGGLGAILSTWLSNQQRNQSVSGEQLESALGTNAVSDLGQKLGVDTSTASSLLAEQLPKIIDALSPQGEVSAQANNDLLSAGMELLKGKLFR
protein production: not failed

MGLFSKRQIGNQYETLAKQYLQRQGLRFLDQNYLTKFGEIDLIFQQDETIVFVEVKYRKNDHFGSAAEMVTNAKMRKLIKTAQVWLSQQRTMNTIDYRFDVIAIHDSGRDINWIQNAISEG
protein production: failed

MGLGRYLPYLLSAALLLLCGCERTDTHAQPAKENGEIKVAPYGSWQSPLSAADVFKQTDDIAELQSVGNAIYFAESSGRDQGKVGIKRLDGLGKVTQVVLPDFNVKSTVHEYGGAAFLGIGKSLFATKMQDQLFYRFAPNQPPLPLTPNGTRHADCVAYPKGSRIICVREDHRQGGEPKASLVTINLNFAGEGDTFVSGHDFISSPTISPDNTQLAWITWEHPYMPWDNSVLWLGELDRKGQLKNVRKVSTPEASSVAQPLFGPDGKLYVVSDISNWWNIYRVTPSYTLEPVLSKNAEFAVPDWRLGNHNYAFENATTLIASYVEGNRAALLRIHLDSELTESLAIDFAEITQVVKGEDGVYFVGAKATPEKGIYRVVGRGTELVYAPALANLNPNYVSRAINIAFATGKDQQAYGYFYGPVNPKYVPPHDTRPPLIVMLHGGPTSRASLAYRSEIQFWTSRGFAVLDLNFRGSSGFGRAYRQSLYGKWGESDVEDAVNAAKYLVAKGWVDANKLAIRGISAGGLTVMSSLAFYNVFQAGVSYEGISDVEQLAKSTHKFESGYLDQLIGPYPENTDRYRELSPLNHLDGLNEPLLIFQSLRNKIVPTSQSRQIYDALKAKGVPTAYIDYGDDSDEGRTPEHKAAGLETELAFYGQVFKFTPAGKLPPLILDNISALTP
protein production: failed

MGLGSSNRQTDDWNAKLYDERHRFVSAYGEDLIQWLAPKEGECVLDLGCGTGDLTEQIHQLGSRVIGVDVSESMIEQAKGKFPHLDFQVAEATDLSFSEKFDAIFSNAVLHWIKDAEEALTVIYRSLKPGGRFVAEFGGKGNVETIVNTLADTMSQADSRWSKEELPWFFPSIGQYTSLMEQVGFRVTHALHFNRPTLLEDGDGIRHWLAMFAESVLEGKSETERAEIVRFVEAEVKDALFDGTNWWADYKRIRVVGMKQL
protein production: failed

MGLKGFAEGGIASIVAGCSTHPLDLIKVRMQLQGESAPIQTNLRPALAFQTSTTVNAPPLRVGVIGVGSRLIREEGMRALFSGVSATVLRQTLYSTTRMGLYDIIKGEWTDPETKTMPLMKKIGAGAIAGAIGAAVGNPADVAMVRMQADGRLPLTDRRNYKSVLDAITQMIRGEGVTSLWRGSSLTINRAMLVTSSQLASYDSVKETILEKGLLKDGLGTHVSASFAAGFVASVASNPVDVIKTRVMNMKVVAGVAPPYKGAVDCALKTVKAEGIMSLYKGFIPTVSRQAPFTVVLFVTLEQVKKLFKDYDF
protein production: failed

MGLLVVKAQRQLRKIDNSKVFQGVVIAVILLSALLIGAKTHNLSSNVVAILLLMDVAVTVFFAIEISIRYLACPQKKNFFKSGWNIFDTVIVIGSLVPSGGSGVLLARLLRVFRVLRLVSMVPELRLLINALLKAIPRMGYIALLMFVIFYIYAAIGSMYFHSINEVLWGDVSISMLTLFRVATFEDWTDVMYETMAVHPLSWIYYLTFIFLTAFIFLNMMVGTVLEVMSQEHEQFRAEQHGESGDGGEPASRAQIDKLESEIAEIKALLLAKT
protein production: failed

MGLVIYDTLARRKVPFEPAVPGHVGIYVCGPTVYADPHLGHARGPVVYDVLRRYLLHKGYKVRFVSNITDVGHLTDDADEGEDKIVRRAKLERLEPMEVAEKYTWSYFDAMQALNVLRPSIAPRASGHIPEMLELTERLLARGVAYERKGSVYFRVRSFPEYGKLSGKRLEELRAGARVEVREEKEDPLDFALWKAAEPGHIMRWKSPWGEGYPGWHIECTAMSLKYLGEGFDLHAGGIDLQFPHHECEIAQAEAAGFRFARHWMHHNHVLLEGEKMAKSTGNLVLLHDLLEAHEPMALRFYLLQTHYRSPMDFTWEGLESAKRGYGRLLHAYREVRGRKKTAPPGTTPELERALDALEKAFMEAIEDDLSTPEALAALFAFLPELHKLLPEAKAESLARAEAVFHTLGEGILGLFPERVLEERVSGPLLEGLIALLLELREEARRAKDYEKSDLIRERLRALGVIVEDTKEGPRWRLER
protein production: not failed

MGLWAAVHAERRGIATIIADAGRLGGGASGGLLGALMPHMPDRWSEKKQFQFDALVSLEAEIAALEAATGLSAGYNRSGRLIPLPKPHLNRIARGHSEDAERHWQAGERRFHWHVVDRPDADGWVDASAGASGFVHDTLAARVAPRSLMSALIASLRQAKFVRILEYAAVAGLDPDRGTADIGGETIAFSRCILAAGHQSFPLLQELTLGPKKPLGQPVKGQATLLKAAIDPALPTIFLDGLYIVAHEGGHVAIGSTSENRFNDPFSTDAQLDALIETARAIVPILRDAPVVERWAGLRPKAIDRDPMIGCHPDHPRLIALTGGFKVSFGLAHRLAEAAVCIADDIDCEYLLPESFAISSHIAAASR
protein production: failed

MGMAASFARASSVIMPAPPRRYFSRQRFHNFRRLAIIGSKATRSGDTAAMTDGKHLDALTAAYAAKRPEEVAALYDRWSRTYDADMSAAGYRHPTICLALLTRHLPRGAAPLLDAGAGTGLIGEWLDISGYPEVEALDISQGMLDQAARKGVYSALHCLALGGALPFADDAYAGIVSAGVFTSGHVGVEGLNELIRICRPGGVIVLTVKNTLWEQGFAARIAELEAQGVVTRAEETRPYVSMPGEADTVPSRGLALRVN
protein production: failed

MGMGSNGELKYEISQNAYIKLVLHSLRHKTAAVNGVLVGRISPKDDGVVEISDSVPLFHSNLALLPPLEISLIMIEEHYVAQGLSIVGYFHANERFDDVELCGVAKNIGDHISRYFPQAPILLLNNKKLEALSKGKERSPVMQLCVKDASKNWRVVGADGGSKLLLKEPSANVVLSDYISSEKWKDVTDVDDHLDDVTKDWLNPGLFN
protein production: failed

MGMHGAAHIVWDWNGTLFHDNAAIIGATNAAFAELGLEPITLERYRALYCVPVPKFYERLIGRLPTDAEWEIMDEIFHRYYAEHRVGCGLTEGAAELLVEWQSAGHSQSILSMYVHDELVPLVRGFGIEPHFIRVDGRTGPSGGSKAEHMVRHIGALAGVAGVDPARTVVIGDAADDAVAALHVGAQAVLYTGGSHSRASLEGVGVPVVDTLAEAVEEAGRLAA
protein production: failed

MGMIGYFAEIDSEKINQLLESTEKPLMDNIHDTLSGLRRLDIDKRWDFLHFGLTGTSAFDPAKNDPLSRAVLGEHSLEDGIDGFLGLTWNQELAATIDRLESLDRNELRKQFSIKRLNEMEIYPGVTFSEELEGQLFASIMLDMEKLISAYRRMLRQGNHALTVIVG
protein production: not failed

MGMMSSLRRLGKRRPVLGILFVVVLSIGLVGSYAIFSTPKAPVAPSESQAQAPDANQQAEAMQKAAQEQISKLETDIANLQKDLQAKPGDIATAVKLGDSQYNLGTLYLFVNGDQEKATQTFKAAVATYQQVLKLNPAEKGINLRLAGAALYAGDSKLAEDNFQAAIKADPNDNNARMTYGMYLASMKGDYQGAIDQWQEILKHNPDKDLATQVQEMIKQAETAKQDANKSAANQPPANQPQANGGQGSGK
protein production: failed

MGNAGESKKSNSDSAKGEEKASGSLTISGSSAMQPLVLAAAEKFMEENPDADIQVQAGGSGTGLSQVSEGAVQIGNSDVFAEEKEGIDAKALVDHQVAVVGMAAAVNPDAGVKDISKDELKKIFTGKIKNWKELGGKDQKITLVNRPDSSGTRATFVKYALDGAEPAEGITEDSSNTVKKIIADTPGAIGYLAFSYLTDDKVTALSIDGVKPEAKNVATGEYPIWAYQHSYTKGEATGLAKEFLDYLKSEDIQKSIVTDQGYIPVTDMKVTRDANGKQSLEHHHHHH
protein production: failed
